# Experimental data reported in PMC3649970, “A Unique Spumavirus Gag N-terminal Domain with Functional Properties of Orthoretroviral Matrix and Capsid” (PLoS Pathogens, 2013).
# T1: PFV-Gag-NtD (amino terminal domain of Prototypic Foamy Virus Gag, residues 1-179) (Prototypic foamy virus (PFV), UniProt P14349 1-179)
# T1 construct: source: E. coli Rosetta 2 (DE3), purified (Ni-NTA, Superdex 200 SEC); not shown: His-tag, N-terminal, kept
# T1 sequence: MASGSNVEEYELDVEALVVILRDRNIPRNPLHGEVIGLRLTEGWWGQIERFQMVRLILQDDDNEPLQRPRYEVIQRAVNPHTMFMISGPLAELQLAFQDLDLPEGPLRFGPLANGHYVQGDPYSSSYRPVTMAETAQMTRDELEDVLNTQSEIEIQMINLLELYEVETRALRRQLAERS
# T2: PFV-Gag-NtD (amino terminal domain of Prototypic Foamy Virus Gag, residues 1-179) (Prototypic foamy virus (PFV), UniProt P14349 1-179)
# T2 chain: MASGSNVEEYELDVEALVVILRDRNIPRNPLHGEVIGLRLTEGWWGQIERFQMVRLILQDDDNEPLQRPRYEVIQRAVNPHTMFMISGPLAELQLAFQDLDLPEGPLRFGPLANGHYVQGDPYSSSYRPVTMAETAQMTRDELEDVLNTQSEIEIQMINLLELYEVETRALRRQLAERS
# Legend:
# [1] = target: T1, PFV-Gag-NtD (amino terminal domain of …); test: AUC; sedimentation velocity of 75 µM equimolar mixtures of Gag-NtD and Env peptide, absorbance at 280 nm; bound fraction from the integrated absorbance of the 3S species in C(S); conditions: both partners purified
# [2] = target: T2, PFV-Gag-NtD (amino terminal domain of …); test: AUC
# [3] = system: PFV Env leader peptide (Env-LP), Env1–20; test: SV-AUC binding of PFV-Gag-NtD mutants to Env1–20 (Env-LP); design: species or system Prototypic Foamy Virus (PFV); conditions: for Gag-Env binding (in words): 75 µM equimolar Gag-NtD mutant and Env1–20
# Protocol: Sedimentation velocity experiments were performed in a Beckman Optima Xl-I analytical ultracentrifuge using conventional aluminium double sector centrepieces and sapphire windows. Solvent density and the protein partial specific volumes were determined as described. Prior to centrifugation, samples were prepared by exhaustive dialysis against the buffer blank solution, 20 mM Tris-HCl, 150 mM NaCl and 0.5 mM TCEP, pH 7.5. Centrifugation was performed at 50,000 rpm and 293 K in an An50-Ti rotor. Interference data were acquired at time intervals of 180 sec at varying sample concentration (0.5–2.5 mg/ml). Data recorded from moving boundaries was analysed using both a discrete species model and in terms of the size distribution functions C(S) using the program SEDFIT [90], [91], [92]. For analysis of Env peptide binding, sedimentation velocity experiments were conducted in 3 mm pathlength centrepieces using equimolar mixtures (75 µM) of PFV-Gag-NtD and Env peptides. In these experiments, radial absorbance scans at 280 nm were also recorded along with the interference data.
# Data were analysed using a general binding expression, Eq. 1. This expression relates the association constant Ka to the fraction of bound peptide θ (θ = [PL]/[Lt]) in terms of the total concentrations of peptide [Lt] and protein [Pt] and is a modification of the formulae employed in [95], [96]. [drawing 1] (1) In sedimentation velocity experiments θ was determined from the integrated absorbance of the 3S species in the C(S) function that best fits the sedimentation data. As equimolar ratios of peptide and protein were employed ([Lt] = [Pt]) Eq. 1 can be simplified and equilibrium association constants determined from Eq. 2. [drawing 2] (2)
molecule,measurement,setting,value
"MTLQQWIIWKKMNK (source: synthetic peptide, bought HPLC purified: Pepceuticals Ltd) [PFV Env leader peptide residues 5-18]",Ka,[1],20000 M⁻¹
same,Kd,[2],49.4 µM
"Val14/Leu21 to serine (protein, left off: His-tag, N-terminal, state not stated) MASGSNVEEYELDSEALVVISRDRNIPRNPLHGEVIGLRLTEGWWGQIERFQMVRLILQDDDNEPLQRPRYEVIQRAVNPHTMFMISGPLAELQLAFQDLDLPEGPLRFGPLANGHYVQGDPYSSSYRPVTMAETAQMTRDELEDVLNTQSEIEIQMINLLELYEVETRALRRQLAERS",reduction of Gag-Env affinity (fold),"[3]; 75 µM equimolar Gag-NtD mutant and Env1–20, relative to wt PFV-Gag-NtD",twenty-fold
"triple substitution where Val14, Val18 and Leu21 were all substituted by serine (protein, UniProt P14349 1-179, looked up, variant V14S V18S L21S, N-terminal His-tag) MASGSNVEEYELDSEALSVISRDRNIPRNPLHGEVIGLRLTEGWWGQIERFQMVRLILQDDDNEPLQRPRYEVIQRAVNPHTMFMISGPLAELQLAFQDLDLPEGPLRFGPLANGHYVQGDPYSSSYRPVTMAETAQMTRDELEDVLNTQSEIEIQMINLLELYEVETRALRRQLAERS",Gag-Env binding (in words),[3],reduced binding to an undetectable level
"Asn29 to glutamine (protein, UniProt P14349 1-179, looked up, variant N29Q, N-terminal His-tag) MASGSNVEEYELDVEALVVILRDRNIPRQPLHGEVIGLRLTEGWWGQIERFQMVRLILQDDDNEPLQRPRYEVIQRAVNPHTMFMISGPLAELQLAFQDLDLPEGPLRFGPLANGHYVQGDPYSSSYRPVTMAETAQMTRDELEDVLNTQSEIEIQMINLLELYEVETRALRRQLAERS",Gag-Env binding (in words),[3],little effect on Env binding
